Measurements: patent publication US20220143148A1, “COMPOSITIONS AND METHODS FOR MODULATING CGRP SIGNALING TO REGULATE INTESTINAL INNATE LYMPHOID CELLS” (The Broad Institute, Inc., priority 2019, published 2022)

System: small intestinal immune cells
Assay: Droplet-based scRNA-seq of small intestinal immune cells (LP and PP), OVA vs PBS, clustering and differential expression
Type: in vivo, mouse
Conditions: cluster ID 5, PP
Source text: To comprehensively characterize small intestinal immune cells, Applicants generated scRNA-Seq profiles for 58,067 immune cells collected from lamina propria (LP) and Peyer's patch (PP) regions at steady state and after induction of a type 2 inflammatory reaction to ovalbumin (OVA) (Brandt et al., 2003) (FIGS. 1A and 8A). To ensure sufficient representation of rare cells, Applicants combined a normalization strategy—removing by flow sorting either a portion of IgD+ naïve B cells, which are the most abundant cell type in PPs, or all CD19+ and CD3+ T cells (FIG. 8B, Methods)—with profiling of a sufficiently large number of cells number (P>0.99 to recover at least 15 cells from each cluster, Methods) by massively parallel scRNA-seq (Haber et al., 2017) (Methods). Applicants obtained 36,797 and 21,270 high quality cells passing initial filtering (Methods) from PP and LP regions, respectively.
Overall, Applicants annotated 27 cell subsets across the two compartments, spanning T cells, B cells, ILCs, dendritic cells (DCs), myeloid cells and stromal cells, in frequencies ranging from 0.07% to 14%. Briefly, Applicants first partitioned the cells from the PP regions by unsupervised clustering (Methods) into 46 clusters, retained the 97% of cells that were robustly assigned cell identities in each cluster (Methods), assigned the cells from the LP regions to the 46 clusters using a classifier (Methods), and visualized the data with scvis (Ding et al., 2018), a deep generative model-based method (FIGS. 1B and 8C, Methods). Next, Applicants identified genes that were differentially expressed between the cells in each cluster and the remaining cells (Table 1, Methods), as well as between pairs of clusters (Table 2), to elucidate identities of similar cell types/states. Applicants excluded from downstream analysis clusters mostly consisting of contaminants from epithelium, likely doublets, or cells with a small number of Unique Molecular Identifiers (UMIs) (FIGS. 1C and 8D), or lacking distinct markers (Methods). Altogether, Applicants retained 27 clusters spanning 85% of the cells and each associated with distinct marker genes (FIG. 8E, Methods).
To induce allergic reaction to OVA, 6 to 7 weeks old mice were sensitized twice, two weeks apart, with 50 μg of OVA plus 1 mg of aluminum potassium sulfate adjuvant via intraperitoneal injection. Two weeks later, mice were orally administered with 50 mg of OVA on every other day for a total of five times. 1 μg of α-CGRP peptide was administered simultaneously when indicated. Mice were deprived of food for 3-4 hours in cages with wood chip bedding for limiting antigen degradation in the stomach before each intragastric challenge.
Isolation of cells from Peyer's patches (PPs). Peyer's patches (PPs) were carefully dissected from the small intestine under a stereo microscope using a fine scissor, pierced once with a fine forcep. Tissues were digested in freshly made digestion buffer (RPMI-1640 containing 100 μg/ml Liberase™ and 50 μg/ml DNase I at 37° C. on a roto-mixer. After 15 min, tissues were very gently mixed using a 1 ml pipette. The supernatant was collected and added to ice-cold MACS buffer (pH 7.4; PBS plus 2% FCS and 2 mM EDTA). Pre-warmed (37° C.) fresh digestion buffer was added to the remaining tissues. After rotation at 37° C. for 15 min, the mixture was vigorously mixed using a 1 ml pipette for 1 min. Supernatants from the two steps were combined and passed through 70 μm filters and stained for FACS (below).
Isolation of cells from the lamina propria (LP). The small intestines were opened longitudinally and washed in ice-cold PBS. For scRNA-seq, roughly 0.5 cm of fragments from each of the distal, middle and proximal regions without visible PPs were collected. Epithelial cells were dissociated by tissue rotation in pre-warmed (37° C.) PBS containing 10 mM EDTA at 37° C. for 15 min, followed by additional incubation on ice for 15 min. Tissues were then shaken vigorously. […]

B1: OVA (protein, UniProt P01012 2-386, looked up)
Ovalbumin: GSIGAASMEFCFDVFKELKVHHANENIFYCPIAIMSALAMVYLGAKDSTRTQINKVVRFDKLPGFGDSIEAQCGTSVNVHSSLRDILNQITKPNDVYSFSLASRLYAEERYPILPEYLQCVKELYRGGLEPINFQTAADQARELINSWVESQTNGIIRNVLQPSSVDSQTAMVLVNAIVFKGLWEKAFKDEDTQAMPFRVTEQESKPVQMMYQIGLFRVASMASEKMKILELPFASGTMSMLVLLPDEVSGLEQLESIINFEKLTEWTSSNVMEERKIKVYLPRMKMEEKYNLTSVLMAMGITDVFSSSANLSGISSAESLKISQAVHAAHAEINEAGREVVGSAEAGVDAASVSEEFRADHPFLFCIKHIATNAVLFFGRCVSP
  Calm1: percentage of expressing cells in OVA-treated group: 0.868
  Cd74: percentage of expressing cells in OVA-treated group: 0.501
  Crlf3: percentage of expressing cells in OVA-treated group: 0.569
  Ctsc: percentage of expressing cells in OVA-treated group: 0.268
  Ddit4: percentage of expressing cells in OVA-treated group: 0.369
  Dnaja1: percentage of expressing cells in OVA-treated group: 0.591
  Dnajb1: percentage of expressing cells in OVA-treated group: 0.206
  Dusp1: percentage of expressing cells in OVA-treated group: 0.206
  DynIl1: percentage of expressing cells in OVA-treated group: 0.7
  Gramd3: percentage of expressing cells in OVA-treated group: 0.475
  Hspa8: percentage of expressing cells in OVA-treated group: 0.977
  Ier2: percentage of expressing cells in OVA-treated group: 0.428
  Ifngr1: percentage of expressing cells in OVA-treated group: 0.563
  Igha: percentage of expressing cells in OVA-treated group: 0.197
  Il7r: percentage of expressing cells in OVA-treated group: 0.48
  Ilk: percentage of expressing cells in OVA-treated group: 0.2
  Jund: percentage of expressing cells in OVA-treated group: 0.654
  Klf6: percentage of expressing cells in OVA-treated group: 0.368
  Klhl6: percentage of expressing cells in OVA-treated group: 0.332
  Lfng: percentage of expressing cells in OVA-treated group: 0.333
  Ltb: percentage of expressing cells in OVA-treated group: 0.865
  Pdcd4: percentage of expressing cells in OVA-treated group: 0.66
  Pik3ip1: percentage of expressing cells in OVA-treated group: 0.556
  Ppp1r15a: percentage of expressing cells in OVA-treated group: 0.219
  Ppp2ca: percentage of expressing cells in OVA-treated group: 0.277
  Ppp3cc: percentage of expressing cells in OVA-treated group: 0.152
  Racgap1: percentage of expressing cells in OVA-treated group: 0.21
  Rnaset2a: percentage of expressing cells in OVA-treated group: 0.709
  Sfpq: percentage of expressing cells in OVA-treated group: 0.284
  Slc9a3r1: percentage of expressing cells in OVA-treated group: 0.428
  Tdrp: percentage of expressing cells in OVA-treated group: 0.228
  Tpm3: percentage of expressing cells in OVA-treated group: 0.665
  Tsc22d3: percentage of expressing cells in OVA-treated group: 0.84
  Tuba1a: percentage of expressing cells in OVA-treated group: 0.302
  Txnip: percentage of expressing cells in OVA-treated group: 0.605
  Uba52: percentage of expressing cells in OVA-treated group: 0.984
  Ucp2: percentage of expressing cells in OVA-treated group: 0.773
  Wdr89: percentage of expressing cells in OVA-treated group: 0.996
  Zfp36l2: percentage of expressing cells in OVA-treated group: 0.617
OVA vs PBS
  1810037l17Rik: LN (average fold change): −0.158
  Bcl2: LN (average fold change): 0.658
  Calm1: LN (average fold change): −0.192
  Cd74: LN (average fold change): −0.211
  Crlf3: LN (average fold change): 0.370
  Ctsc: LN (average fold change): 0.402
  Ddit4: LN (average fold change): 0.426
  Dnaja1: LN (average fold change): −0.416
  Dnajb1: LN (average fold change): −0.867
  Dusp1: LN (average fold change): −0.321
  DynIl1: LN (average fold change): −0.370
  Gramd3: LN (average fold change): 0.481
  Hspa8: LN (average fold change): −0.255
  Ier2: LN (average fold change): −0.174
  Ifngr1: LN (average fold change): 0.536
  Igha: LN (average fold change): 0.503
  Il7r: LN (average fold change): 0.612
  Ilk: LN (average fold change): 0.159
  Jund: LN (average fold change): −0.319
  Klf6: LN (average fold change): −0.374
  Klhl6: LN (average fold change): 0.485
  Lfng: LN (average fold change): −0.281
  Ltb: LN (average fold change): −0.238
  Pdcd4: LN (average fold change): 0.394
  Pik3ip1: LN (average fold change): 0.361
  Ppp1r15a: LN (average fold change): −0.287
  Ppp2ca: LN (average fold change): −0.469
  Ppp3cc: LN (average fold change): 0.621
  Racgap1: LN (average fold change): 0.436
  Rnaset2a: LN (average fold change): 0.225
  Sfpq: LN (average fold change): −0.373
  Slc9a3r1: LN (average fold change): −0.256
  Tdrp: LN (average fold change): −0.354
  Tpm3: LN (average fold change): 0.282
  Tsc22d3: LN (average fold change): 0.772
  Tuba1a: LN (average fold change): −0.250
